Patent US20210130431A1 (published 2021)

Tests used:
[1] = molecular target: T1, TCL1 70-79, alanine replacement at position 5 peptide on HLA-A*02:01 (human); assay: cytokine release
T1 peptide: SLLPAMWQLY

[2] = molecular target: T2, TCL1 70-79, glycine replacement at position 1 peptide on HLA-A*02:01 (human); assay: cytokine release
T2 peptide: GLLPIMWQLY

[3] = molecular target: T3, TCL1 70-79, alanine replacement at position 8 peptide on HLA-A*02:01 (human); assay: cytokine release
T3 peptide: SLLPIMWALY

[4] = molecular target: T4, TCL1 70-79, alanine replacement at position 7 peptide on HLA-A*02:01 (human); assay: cytokine release
T4 peptide: SLLPIMAQLY

[5] = molecular target: T5, TCL1 70-79, alanine replacement at position 9 peptide on HLA-A*02:01 (human); assay: cytokine release
T5 peptide: SLLPIMWQAY

[6] = molecular target: T6, TCL1 70-79, alanine replacement at position 4 peptide on HLA-A*02:01 (human); assay: cytokine release
T6 peptide: SLLAIMWQLY

[7] = molecular target: T7, TCL1 70-79, glycine replacement at position 10 peptide on HLA-A*02:01 (human); assay: cytokine release
T7 peptide: SLLPIMWQLG

[8] = molecular target: T8, TCL1 70-79, glycine replacement at position 2 peptide on HLA-A*02:01 (human); assay: cytokine release
T8 peptide: SGLPIMWQLY

[9] = molecular target: T9, TCL1 70-79, glycine replacement at position 4 peptide on HLA-A*02:01 (human); assay: cytokine release
T9 peptide: SLLGIMWQLY

[10] = molecular target: T10, TCL1 70-79, glycine replacement at position 9 peptide on HLA-A*02:01 (human); assay: cytokine release
T10 peptide: SLLPIMWQGY

[11] = molecular target: T11, TCL1 70-79, glycine replacement at position 8 peptide on HLA-A*02:01 (human); assay: cytokine release
T11 peptide: SLLPIMWGLY

[12] = molecular target: T12, TCL1 70-79, alanine replacement at position 3 peptide on HLA-A*02:01 (human); assay: cytokine release
T12 peptide: SLAPIMWQLY

[13] = molecular target: T13, TCL1 70-79, glycine replacement at position 6 peptide on HLA-A*02:01 (human); assay: cytokine release
T13 peptide: SLLPIGWQLY

[14] = molecular target: T14, TCL1 70-79, alanine replacement at position 10 peptide on HLA-A*02:01 (human); assay: cytokine release
T14 peptide: SLLPIMWQLA

[15] = molecular target: T15, TCL1 70-79, glycine replacement at position 7 peptide on HLA-A*02:01 (human); assay: cytokine release
T15 peptide: SLLPIMGQLY

[16] = molecular target: T16, TCL1 70-79, alanine replacement at position 6 peptide on HLA-A*02:01 (human); assay: cytokine release
T16 peptide: SLLPIAWQLY

[17] = molecular target: T17, TCL1 70-79, alanine replacement at position 2 peptide on HLA-A*02:01 (human); assay: cytokine release
T17 peptide: SALPIMWQLY

[18] = molecular target: T18, TCL1 70-79, alanine replacement at position 1 peptide on HLA-A*02:01 (human); assay: cytokine release
T18 peptide: ALLPIMWQLY

[19] = molecular target: T19, TCL1 70-79, glycine replacement at position 3 peptide on HLA-A*02:01 (human); assay: cytokine release
T19 peptide: SLGPIMWQLY

[20] = molecular target: T20, TCL1 70-79, glycine replacement at position 5 peptide on HLA-A*02:01 (human); assay: cytokine release
T20 peptide: SLLPGMWQLY

[21] = molecular target: T21, TCL1 peptide on HLA-A*02:01 (human); assay: multimer staining
T21 peptide: SLLPIMWQLY

Measured: binding result

B1: TCL1-TCR (TCR, V domains shown)
Valpha: GQSLEQPSEVTAVEGAIVQINCTYQTSGFYGLSWYQQHDGGAPTFLSYNGLDGLEETGRFSSFLSRSDSYGYLLLQELQMKDSASYFCLLGSGAGSYQLTFGKGTKLSVIP
Vbeta: DAGVTQSPTHLIKTRGQHVTLRCSPISGHKSVSWYQQVLGQGPQFIFQYYEKEERGRGNFPDRFSARQFPNYSSELNVNALLLGDSALYLCASSFTDGGTYEQYFGPGTRLTVT
recognises: [2] | [7] | [14] | [18] | [21]
no recognition: all other assays above
